Data as given in patent publication CN114230662A (ANYUAN MEDICINE SCIENCE AND TECH SHANGHAI LIMITED COMPANY, dated 2022).

Columns and labels:
[1] = target: T1, 人CD47抗原 (recombinant human CD47, 北京义翘神州生物技术有限公司, 货号12283-HCCH) (human, UniProt Q08722 19-139); assay: ELISA, coated human CD47 (0.2 μg/ml)
T1 construct: The catalogue number is printed only in 6.1 and 6.2; the construct is not described; also called 重组人CD47; human CD47 antigen

[2] = target: T2, human CD47 on cells (Raji-luc, CCRF-CEM, Jurkat, CHO/K1-hCD47) (human, UniProt Q08722 19-323); assay: flow cytometry on CHO/K1-hCD47 cells
T2 construct: whole, on cells; also called 细胞表面的CD47

[3] = target: T1, 人CD47抗原 (recombinant human CD47, …); assay: blocking ELISA on coated human CD47 (2.0 μg/ml); competitor biotin-labelled human SIRPα (0.2 μg/ml)
[4] = target: T2, human CD47 on cells (Raji-luc, …); assay: flow cytometry on CCRF-CEM cells
[5] = target: T2, human CD47 on cells (Raji-luc, …); assay: flow cytometry on Raji-luc and Jurkat cells; against control antibody AB12W2
[6] = target: T3, 重组人CD47蛋白(His-tag) (Acro Biosystems, 货号CD-H5227) (human, UniProt Q08722 19-139); assay: Biacore T200 (called BLI in the filing), method as in example 2.5
T3 construct: Analyte (mobile phase) in the Biacore T200 measurements of 2.5 and 6.6; also called recombinant human CD47 protein (His-tag); not shown: His tag
T3 sequence (Q08722 19-139 limits assumed): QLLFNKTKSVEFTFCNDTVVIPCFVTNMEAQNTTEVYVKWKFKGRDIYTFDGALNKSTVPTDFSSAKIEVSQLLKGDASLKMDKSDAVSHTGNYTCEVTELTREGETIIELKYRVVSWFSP

T2 sequence (Q08722 19-323): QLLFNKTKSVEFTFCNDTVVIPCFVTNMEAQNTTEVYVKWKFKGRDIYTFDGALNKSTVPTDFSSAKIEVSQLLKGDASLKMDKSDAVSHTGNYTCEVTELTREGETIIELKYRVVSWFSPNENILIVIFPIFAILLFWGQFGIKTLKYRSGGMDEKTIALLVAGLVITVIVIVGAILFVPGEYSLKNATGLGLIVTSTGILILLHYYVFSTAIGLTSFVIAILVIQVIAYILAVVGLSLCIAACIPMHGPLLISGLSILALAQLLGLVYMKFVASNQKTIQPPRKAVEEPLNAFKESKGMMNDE
T1 sequence (Q08722 19-139 limits assumed): as the sequence (Q08722 19-139 limits assumed) above

Row | EC50 [1] [µg/mL] | EC50 [2] [µg/mL] | EC50 [3] [µg/mL] | EC50 [4] [µg/mL] | EC50 lower than that of the control antibody AB12W2 [5] [%] | binding result [6] | Binder
1 |  | 0.252 |  | 0.162 |  |  | AB12W9 (antibody, Humanized from Mo2A21331 by resurfacing) heavy: EVKLVESGGGLVKPGGSLRLSCAASGFAFSTYDMSWVRQTPGKGLEWVASISTGGTYTYYPDSVKGRFTIFRDNARNTLYLQMNSLRAEDTALYYCARRPYYFDYWGQGTLLTVSSASTKGPSVFPLAPSSKSTSGGTAALGCLVKDYFPEPVTVSWNSGALTSGVHTFPAVLQSSGLYSLSSVVTVPSSSLGTQTYICNVNHKPSNTKVDKKVEPKSCDKTHTCPPCPAPELLGGPSVFLFPPKPKDQLMISRTPEVTCVVVDVSHEDPEVKFNWYVDGVEVHNAKTKPREEQYASTYRVVSVLTVLHQDWLNGKEYKCKVSNKALPAPIEKTISKAKGQPREPQVYTLPPSREEMTKNQVSLTCLVKGFYPSDIAVEWESNGQPENNYKTTPPVLDSDGSFFLYSKLTVDKSRWQQGNVFSCSVLHEALHNHYTQKSLSLSPGK light: DIKMTQSPSSKSASVGERVTITCQASQDINNYLSWFQQKPGKAPKTLIYRANRLMTGVPSRFSGSGSGQDFSLTISSLQPEDMGIYYCLQFDDFPLTFGQGTKLEIKRTVAAPSVFIFPPSDEQLKSGTASVVCLLNNFYPREAKVQWKVDNALQSGNSQESVTEQDSKDSTYSLSSTLTLSKADYEKHKVYACEVTHQGLSSPVTKSFNRGEC
2 |  |  |  |  |  | binds | AB12W4 (antibody, human IgG4 S228P, kappa, V domains shown, Humanized from Mo2A11971 by resurfacing) VH: QIQLVQSGAEVVKPGASVKISCKASGYTFTDYYINWVKQAPGQRLEWIGWIYPGSGNTKHNQKFQGKATLTVDTSSSTAYMELSSLRSEDTAVYFCARRGTYYYGSSSDGFPYWGQGTLVTVSS VL: QIVLTQSPATMSASPGERVTISCRASSSVYYMYWYQQKPGQSPRPWIYRTSNLATGVPARFSGSGSGTSYSLTISSMEPEDFATYYCQQYHSYPLTFGQGTKLEIKR

The next lines start with the binder.

Row | Binder | EC50 [1] [µg/mL] | EC50 [2] [µg/mL] | EC50 [3] [µg/mL] | EC50 [4] [µg/mL] | EC50 lower than that of the control antibody AB12W2 [5] [%] | binding result [6]
3 | AB12W3 (antibody, human IgG4 S228P, kappa, V domains shown, Humanized from Mo2A1621 by resurfacing; Expressed in CHO cells) VH: EVQLVQSGAEVVKPGATVKISCKASGYSFTDYFMTWMKQSPGKSLEWIGRINPYNGETFYNQKFQGKATLTVDKSSTTAHMELSSLRSEDSAVYYCGRGGTAGTDYWGQGTLLTVSS VL: DVLLTQSPLSLPVTLGQPASISCRSSQSVVRSNGNTYLEWYLQKPGQSPRLLINKVSRRFSGVPDRFSGSGSGSEFTLKISRVEAEDVGIYYCFQGSHVPYTFGQGTKLEIKR | 0.0112 | 0.461 | 1.17 |  |  | 
4 | AB12W2 (antibody, V domains shown, Humanized anti-human CD47 control antibody with the variable regions of Celgene's CC-90002 (per CN104271757B); it was detected with anti-human IgG; also called CC-90002 (source of the variable regions); 对照抗体AB12W2) VH: QMQLVQSGAEVKKTGSSVKVSCKASGFNIKDYYLHWVRQAPGQALEWMGWIDPDQGDTEYAQKFQDRVTITRDRSMSTAYMELSSLRSEDTAMYYCNAAYGSSSYPMDYWGQGTTVTV VL: NIQMTQSPSAMSASVGDRVTITCKASQDIHRYLSWFQQKPGKVPKHLIYRANRLVSGVPSRFSGSGSGTEFTLTISSLQPEDFATYYCLQYDEFPYTFGGGTKVEIK | 0.0092 |  | 1.02 | 0.157 |  | 
5 | AB12W6 (antibody, human IgG4 S228P, kappa, Humanized from Mo2A21331 by resurfacing) heavy: not shown light: DIKMTQSPSSKSASVGERVTITCQASQDINNYLSWFQQKPGKAPKTLIYRANRLMTGVPSRFSGSGSGQDFSLTISSLQPEDMGIYYCLQFDDFPLTFGQGTKLEIKRTVAAPSVFIFPPSDEQLKSGTASVVCLLNNFYPREAKVQWKVDNALQSGNSQESVTEQDSKDSTYSLSSTLTLSKADYEKHKVYACEVTHQGLSSPVTKSFNRGEC | 0.0128 | 0.217 | 1.29 |  | 50 | 
